Target: CD20
Assay: flow_cytometry
Conditions: 4.0 °C

Row | EC50 (pH 7.4) | EC50 (pH 6.0) | Substance
1 | 14 nM |  | 2OSL-Fab (WT)
2 |  | 20 nM | 2OSL-Fab-H-Y97NY
3 |  | 8 nM | 2OSL-Fab-L-Y32NY

From PMC11339442
